Measurements: the supplement of paper PMC7125110
± gives the standard error. For part of these data: Fewer inactive variants are shown than the library holds.

B1: glmS ribozyme (parent)
chain: AUAAAAGCGCCAGAACUACAGAAAUGUAGUUGACGAGGAGGAGGUUUAUCGAAUUUUCGGCGGAUGCCUCCAAA

Key:
Details in all cases: with glucosamine-6-phosphate
glucosamine-6-phosphate [1] = variants of: B1; experiment: kcat; higher = faster cleavage; RNA array
Outline: (§1)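 Sequenced MiSeq chips were the platform: E. coli RNA polymerase transcribed barcoded ribozyme variants on them in situ, and a hybridised Cy3 probe tracked these at 37 °C. After glucosamine-6-phosphate (40 μM to 10 mM) in HEPES/KCl/Mg(OAc)2 buffer was flowed in, tiles were imaged over ~14 h. Signals normalised to baseline and to non-cleaving reference variants were reduced to per-tile medians and fit to one- or two-exponential decays to obtain kobs. kcat and KM were derived through weighted Michaelis–Menten fits across concentrations.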

glucosamine-6-phosphate [2] = variants of: B1; experiment: self-cleavage kobs at 40 uM GlcN6P; higher = faster cleavage; RNA array
Outline: as §1

glucosamine-6-phosphate [3] = variants of: B1; experiment: self-cleavage kobs at 2500 uM GlcN6P; higher = faster cleavage; RNA array
Outline: as §1

glucosamine-6-phosphate [4] = variants of: B1; experiment: KM; higher = weaker cofactor use; RNA array
Outline: as §1

glucosamine-6-phosphate [5] = variants of: B1; experiment: self-cleavage kobs at 640 uM GlcN6P; higher = faster cleavage; RNA array
Outline: as §1

glucosamine-6-phosphate [6] = variants of: B1; experiment: self-cleavage kobs at 10000 uM GlcN6P; higher = faster cleavage; RNA array
Outline: as §1

glucosamine-6-phosphate [7] = variants of: B1; experiment: self-cleavage kobs at 160 uM GlcN6P; higher = faster cleavage; RNA array
Outline: as §1

Row | Variant | kcat (glucosamine-6-phosphate [1]) | self-cleavage kobs at 40 uM GlcN6P (glucosamine-6-phosphate [2]) | self-cleavage kobs at 2500 uM GlcN6P (glucosamine-6-phosphate [3]) | KM (glucosamine-6-phosphate [4]) | self-cleavage kobs at 640 uM GlcN6P (glucosamine-6-phosphate [5]) | self-cleavage kobs at 10000 uM GlcN6P (glucosamine-6-phosphate [6]) | self-cleavage kobs at 160 uM GlcN6P (glucosamine-6-phosphate [7])
1 | AUAAAAGCGCCAGAACUACAGAAAUGUAGUUGACGAGGAGGAGGUUUAUCGAAUUUUGGGCGCAUGCCUCCAAA [C58G G63C] | < 1e-05 s⁻¹ | < 1e-05 s⁻¹ | < 1e-05 s⁻¹ |  |  |  | 
2 | AUAAAAGCGCCAGAACUACAGAAAUGUAGUUGACGAGGAGGUGGUUUAUCGAAUUUUCGGCGGAGGCCUCCAAA [A42U U65G] | 0.000343 ± 2.8e-05 s⁻¹ |  | 0.000165 ± 1.9e-05 s⁻¹ | 3030 ± 500 µM | 5.7e-05 ± 1e-05 s⁻¹ | 0.000257 ± 2.8e-05 s⁻¹ | 
3 | AUAAAAGCGCCAGAACUACAGAAAUGUAGUUGACGAGGAGGAGGUUUAUGGAAUUUUCGGCGGAUGACUCCAAA [C50G C67A] | 0.000178 ± 2.6e-05 s⁻¹ | 9.53e-05 ± 1.2e-05 s⁻¹ | 0.000183 ± 2.4e-05 s⁻¹ |  | 0.000259 ± 3.2e-05 s⁻¹ | 0.000145 ± 1.9e-05 s⁻¹ | 0.000153 ± 2e-05 s⁻¹
4 | AUAAAAGCGUCAGAACUACAGAAAUGUAGUUGACGAGGAGGAGGUUUAUCGAAUUUUCGGCGGAUGCCACCAAA [C10U U69A] | 1.11e-05 ± 3.7e-06 s⁻¹ |  |  |  |  |  | 
5 | AUAAAAGCGCCAGAACUACAGAAAUGUACUUGACGAGGAGGAGGUUUAUCGAUUUUUCGGCGGAUGCCUCCAAA [G29C A53U] | 0.00163 ± 0.00038 s⁻¹ | 5.34e-05 ± 1.1e-05 s⁻¹ | 0.000902 ± 0.0002 s⁻¹ | 1950 ± 640 µM | 0.000383 ± 6.3e-05 s⁻¹ | 0.00141 ± 0.00024 s⁻¹ | 0.000111 ± 1.9e-05 s⁻¹
6 | AUAAAAGCGCCAGAACUACAGAAAUGUAGUUGACGACGAGGAGGUUUAUCGAAUUUUCGGCGGAUGUCUCCAAA [G37C C67U] | 2.86e-05 ± 3.3e-06 s⁻¹ |  | 2.85e-05 ± 1e-05 s⁻¹ |  |  |  | 
7 | AUAAAAGCGCCAGAACUACAGAAAUGUAUUUGACGAGUAGGAGGUUUAUCGAAUUUUCGGCGGAUGCCGCCAAA [G29U G38U U69G] | 7.45e-05 ± 3.4e-05 s⁻¹ |  | 0.000102 ± 4.6e-05 s⁻¹ |  | 0.00014 ± 6.1e-05 s⁻¹ |  | 9.11e-05 ± 1.8e-05 s⁻¹
8 | AUAAACGCGCCAGAGCUACAGAAAUGUAGUUGACGAGGAGGAGGUUUAUCGAAUUUUCGGCGGAUGCCUCCAAA [A6C A15G] | 0.00015 ± 3.4e-06 s⁻¹ |  | 7.37e-05 ± 1.3e-05 s⁻¹ | 2500 ± 150 µM | 3.25e-05 ± 1.4e-05 s⁻¹ | 0.000121 ± 1.6e-05 s⁻¹ | 
9 | AUAAAGGCGCCAGAACUACAGAAAUGUAGUUGACGAGGAGGAGGUUUAUCGAAUUAUCGGCGGAUGCCUCCAAA [A6G U56A] | 0.000242 ± 1.2e-05 s⁻¹ |  | 0.000114 ± 2.4e-05 s⁻¹ | 2780 ± 290 µM | 4.69e-05 ± 1.4e-05 s⁻¹ | 0.00019 ± 3.6e-05 s⁻¹ | 
10 | AUAAAAGCGCCAGAAGUACAGAAAUGUAGUUGACGAGGAGAAGGUUUAUCGAAUUUUCGGCGGAUGCCUCCAAA [C16G G41A] | 9.56e-05 ± 1.7e-05 s⁻¹ |  | 7.9e-05 ± 1.8e-05 s⁻¹ |  |  | 7.96e-05 ± 1.2e-05 s⁻¹ | < 1e-05 s⁻¹
11 | AUAAAAGCGCCAGAACUACAGAAAUGUAGUAGACGAGGAGGAGGUUUAUCGAAUUUUCGGCGGAUGCCACCAAA [U31A U69A] | 0.000105 ± 2.5e-05 s⁻¹ |  | 0.000163 ± 2.9e-05 s⁻¹ |  | 7.66e-05 ± 2.3e-05 s⁻¹ | 7.86e-05 ± 2.1e-05 s⁻¹ | 7.05e-05 ± 1.9e-05 s⁻¹
12 | AUAAAAGCGCCAGAACUACAGAAAUGUAGUUUACGAGGAGGAGGUUUAUCGAAUUUUCGGCGGAAGCCUCCAAA [G32U U65A] | 0.000104 ± 1.3e-05 s⁻¹ |  |  | 5750 ± 1600 µM |  | 6.61e-05 ± 1.3e-05 s⁻¹ | < 1e-05 s⁻¹
13 | AUAAAAGCGCCAGAACUACAGAAAUGUAGUUGACGAGGCGGAGGUUUAUCGAAUUUUCGGCGGAUGACUCCAAA [A39C C67A] | 0.00061 ± 0.00015 s⁻¹ | 2.37e-05 ± 5.8e-06 s⁻¹ | 0.000714 ± 0.00014 s⁻¹ | 1790 ± 670 µM | 0.000144 ± 1.2e-05 s⁻¹ | 0.000522 ± 5e-05 s⁻¹ | 5.89e-05 ± 7.1e-06 s⁻¹
14 | AUAAAAGCGCCAGAACUACAGAAAUGUAGUUGACGAGGAGGAGGUUUAUCGAAUUAUCGGCGGAUGCAUCCAAA [U56A C68A] | 4.71e-05 ± 1.1e-05 s⁻¹ |  | 5.61e-05 ± 1e-05 s⁻¹ |  | 5.74e-05 ± 1e-05 s⁻¹ |  | 5.43e-05 ± 1e-05 s⁻¹
15 | AUAAAAGCGCCAGAACUACAGAAAUGUAGUAGACGAGGAGGAGGUUUAUCGAAUCUUCGGCGGAUGCCUCCAAA [U31A U55C] | 0.0168 ± 0.0039 s⁻¹ | 0.000283 ± 4.3e-05 s⁻¹ | 0.00826 ± 0.0023 s⁻¹ | 3130 ± 990 µM | 0.00293 ± 0.00082 s⁻¹ | 0.0127 ± 0.0018 s⁻¹ | 0.000647 ± 0.00012 s⁻¹
16 | AUAAAAGCGCCAGAACUACAGAAAUGUAGUUGACGAGGAGGAGGUUUAGCGAAUUUUCGGCGGGUGCCUCCAAA [U49G A64G] | 0.00241 ± 0.00088 s⁻¹ | 6.16e-05 ± 1e-05 s⁻¹ | 0.000922 ± 0.00016 s⁻¹ |  | 0.000414 ± 6.7e-05 s⁻¹ | 0.00232 ± 0.0003 s⁻¹ | 0.00015 ± 4.1e-05 s⁻¹
